The record followed here is patent US20110098440A1 (Novo Nordisk, published 2011).

The target of assay [1] is T1, purified recombinant human insulin receptor (IR-A) (human, UniProt P06213-2 28-1370, limits assumed).
T1 construct: The receptor was captured on SPA beads through the F12 antibody
Description: SPA competition, displacement of A14Tyr[125I]-human insulin from human insulin receptor, 0% HSA; relative to desB30 human insulin = 100%. As to the method:
(§1) The affinity of the acylated insulin analogues of this invention for the human insulin receptor is determined by a SPA assay (Scintillation Proximity Assay) microtiterplate antibody capture assay. […] A total of 100 μl reagent mix is then added to each well in the Packard Optiplate and a dilution series of the insulin derivative is made in the Optiplate from appropriate samples. The samples are then incubated for 16 hours while gently shaken. The phases are the then separated by centrifugation for 1 min and the plates counted in a Topcounter. The binding data were fitted using the nonlinear regression algorithm in the GraphPad Prism 2.01 (GraphPad Software, San Diego, Calif.).

For assay [2], the target named is T1, purified recombinant human insulin …. Kind of assay: SPA competition, displacement of A14Tyr[125I]-human insulin from human insulin receptor, 4.5% HSA; relative to desB30 human insulin = 100%. As to the method: as §1

B1: A8H, A22K(N^ε-Octadecandioyl-γGlu-[2-(2-{2-[2-(2-aminoethoxy)ethoxy]acetylamino}ethoxy)ethoxy]-acetyl), B29R, desB30 human insulin (ligand)
chain 1: GIVEQCCHSICSLYQLENYCNK
chain 2: FVNQHLCGSHLVEALYLVCGERGFFYTPR
modifications: A22K(N^ε-Octadecandioyl-γGlu-[2-(2-{2-[2-(2-aminoethoxy)ethoxy]acetylamino}ethoxy)ethoxy]-acetyl)
notes: also called C18-gGlu-OEG-OEG, A8H, A22K, B29R
Take B1: the “IR-A affinity (0% HSA)” value in assay [1] worked out at 417%. The “IR-A affinity (4.5% HSA)” value in assay [2] was 63%.

B2: A14E, A22K(N^ε-Octadecandioyl-γGlu-(3-[2-(2-{2-[2-(2-{2-[2-(2-aminoethoxy)ethoxy]ethoxy}ethoxy)ethoxy]ethoxy}ethoxy)ethoxy]propionyl)), B25H, B29R, desB30 … (ligand)
chain 1: GIVEQCCTSICSLEQLENYCNK
chain 2: FVNQHLCGSHLVEALYLVCGERGFHYTPR
modifications: A22K(N^ε-Octadecandioyl-γGlu-(3-[2-(2-{2-[2-(2-{2-[2-(2-aminoethoxy)ethoxy]ethoxy}ethoxy)ethoxy]ethoxy}ethoxy)ethoxy]propionyl))
notes: also called C18-gGlu-PEG7, A14E, A22K, B25H, B29R
For B2, in assay [1], the “IR-A affinity (0% HSA)” value was 28%.

B3: A14E, A22K(N^ε-[2-(2-[2-(2-[2-(Octadecandioyl-γGlu)amino]ethoxy)ethoxy]acetylamino)ethoxy]ethoxy)-acetyl]), B25H, B29R, desB30 human insulin (ligand)
chain 1: GIVEQCCTSICSLEQLENYCNK
chain 2: FVNQHLCGSHLVEALYLVCGERGFHYTPR
modifications: A22K(N^ε-[2-(2-[2-(2-[2-(Octadecandioyl-γGlu)amino]ethoxy)ethoxy]acetylamino)ethoxy]ethoxy)-acetyl])
notes: also called C18-gGlu-OEG-OEG, A14E, A22K, B25H, B29R
In the case of B3, in assay [1], the “IR-A affinity (0% HSA)” value came out at 22.4%. Also, the “IR-A affinity (4.5% HSA)” value in assay [2] was found to be 5%.

B4: A14E, A22K(N^ε-Octadecandioyl-γGlu-(3-(2-{2-[2-(2-aminoethoxy)ethoxy]ethoxy}ethoxy)propionyl)-γGlu), B25H, B29R, desB30 human insulin (ligand)
chain 1: GIVEQCCTSICSLEQLENYCNK
chain 2: FVNQHLCGSHLVEALYLVCGERGFHYTPR
modifications: A22K(N^ε-Octadecandioyl-γGlu-(3-(2-{2-[2-(2-aminoethoxy)ethoxy]ethoxy}ethoxy)propionyl)-γGlu)
notes: also called C18-gGlu-PEG3-gGlu, A14E, A22K, B25H, B29R
In the case of B4, in assay [1], the “IR-A affinity (0% HSA)” value was found to be 23%.

B5: A14E, A22K(N^ε-Eicosanedioyl-γGlu-(3-(2-{2-[2-(2-aminoethoxy)ethoxy]ethoxy}ethoxy)propionyl)), B25H, B29R, desB30 human insulin (ligand)
chain 1: GIVEQCCTSICSLEQLENYCNK
chain 2: FVNQHLCGSHLVEALYLVCGERGFHYTPR
modifications: A22K(N^ε-Eicosanedioyl-γGlu-(3-(2-{2-[2-(2-aminoethoxy)ethoxy]ethoxy}ethoxy)propionyl))
notes: also called C20-gGlu-PEG3, A14E, A22K, B25H, B29R
Regarding B5, in assay [2], the “IR-A affinity (4.5% HSA)” value is 5.2%.

B6: A18L, A22K(N^ε-Octadecandioyl-γGlu-[2-(2-{2-[2-(2-aminoethoxy)ethoxy]acetylamino}ethoxy)ethoxy]-acetyl), B29R, desB30 human insulin (ligand)
chain 1: GIVEQCCTSICSLYQLELYCNK
chain 2: FVNQHLCGSHLVEALYLVCGERGFFYTPR
modifications: A22K(N^ε-Octadecandioyl-γGlu-[2-(2-{2-[2-(2-aminoethoxy)ethoxy]acetylamino}ethoxy)ethoxy]-acetyl)
notes: also called C18-gGlu-OEG-OEG, A18L, A22K, B29R
As to B6, in assay [1], the “IR-A affinity (0% HSA)” value is 339%. In addition, in assay [2], the “IR-A affinity (4.5% HSA)” value came to 23.6%.

B7: A14E, A22K(N^ε-Eicosanedioyl-γGlu-γGlu-(3-[2-(2-{2-[2-(2-{2-[2-(2-aminoethoxy)ethoxy]ethoxy}ethoxy)ethoxy]ethoxy}ethoxy)ethoxy]propionyl)), B25H, B29R, desB30 … (ligand)
chain 1: GIVEQCCTSICSLEQLENYCNK
chain 2: FVNQHLCGSHLVEALYLVCGERGFHYTPR
modifications: A22K(N^ε-Eicosanedioyl-γGlu-γGlu-(3-[2-(2-{2-[2-(2-{2-[2-(2-aminoethoxy)ethoxy]ethoxy}ethoxy)ethoxy]ethoxy}ethoxy)ethoxy]propionyl))
notes: also called C20-gGlu-gGlu-PEG7, A14E, A22K, B25H, B29R
In the case of B7, the “IR-A affinity (0% HSA)” value in assay [1] turned out to be 25%.
